Data on 14 variants can be found in IntAct's records for PubMed 25416956.

B1: Inactive peptidyl-prolyl cis-trans isomerase FKBP6 (Homo sapiens), O75344 (parent)
chain: MGGSALNQGVLEGDDAPGQSLYERLSQRMLDISGDRGVLKDVIREGAGDLVAPDASVLVKYSGYLEHMDRPFDSNYFRKTPRLMKLGEDITLWGMELGLLSMRRGELARFLFKPNYAYGTLGCPPLIPPNTTVLFEIELLDFLDCAESDKFCALSAEQQDQFPLQKVLKVAATEREFGNYLFRQNRFYDAKVRYKRALLLLRRRSAPPEEQHLVEAAKLPVLLNLSFTYLKLDRPTIALCYGEQALIIDQKNAKALFRCGQACLLLTEYQKARDFLVRAQKEQPFNHDINNELKKLASCYRDYVDKEKEMWHRMFAPCGDGSTAGES
partner: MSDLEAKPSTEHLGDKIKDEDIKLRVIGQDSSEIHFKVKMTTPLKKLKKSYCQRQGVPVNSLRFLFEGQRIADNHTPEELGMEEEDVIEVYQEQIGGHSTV
B2: DNA ligase 4 (Homo sapiens), P49917 (parent)
chain: MAASQTSQTVASHVPFADLCSTLERIQKSKGRAEKIRHFREFLDSWRKFHDALHKNHKDVTDSFYPAMRLILPQLERERMAYGIKETMLAKLYIELLNLPRDGKDALKLLNYRTPTGTHGDAGDFAMIAYFVLKPRCLQKGSLTIQQVNDLLDSIASNNSAKRKDLIKKSLLQLITQSSALEQKWLIRMIIKDLKLGVSQQTIFSVFHNDAAELHNVTTDLEKVCRQLHDPSVGLSDISITLFSAFKPMLAAIADIEHIEKDMKHQSFYIETKLDGERMQMHKDGDVYKYFSRNGYNYTDQFGASPTEGSLTPFIHNAFKADIQICILDGEMMAYNPNTQTFMQKGTKFDIKRMVEDSDLQTCYCVFDVLMVNNKKLGHETLRKRYEILSSIFTPIPGRIEIVQKTQAHTKNEVIDALNEAIDKREEGIMVKQPLSIYKPDKRGEGWLKIKPEYVSGLMDELDILIVGGYWGKGSRGGMMSHFLCAVAEKPPPGEKPSVFHTLSRVGSGCTMKELYDLGLKLAKYWKPFHRKAPPSSILCGTEKPEVYIEPCNSVIVQIKAAEIVPSDMYKTGCTLRFPRIEKIRDDKEWHECMTLDDLEQLRGKASGKLASKHLYIGGDDEPQEKKRKAAPKMKKVIGIIEHLKAPNLTNVNKISNIFEDVEFCVMSGTDSQPKPDLENRIAEFGGYIVQNPGPDTYCVIAGSENIRVKNIILSNKHDVVKPAWLLECFKTKSFVPWQPRFMIHMCPSTKEHFAREYDCYGDSYFIDTDLNQLKEVFSGIKNSNEQTPEEMASLIADLEYRYSWDCSPLSMFRRHTVYLDSYAVINDLSTKNEGTRLAIKALELRFHGAKVVSCLAEGVSHVIIGEDHSRVADFKAFRRTFKRKFKILKESWVTDSIDKCELQEENQYLI
B3: Forkhead box protein P3 (Homo sapiens), Q9BZS1 (parent)
chain: MPNPRPGKPSAPSLALGPSPGASPSWRAAPKASDLLGARGPGGTFQGRDLRGGAHASSSSLNPMPPSQLQLPTLPLVMVAPSGARLGPLPHLQALLQDRPHFMHQLSTVDAHARTPVLQVHPLESPAMISLTPPTTATGVFSLKARPGLPPGINVASLEWVSREPALLCTFPNPSAPRKDSTLSAVPQSSYPLLANGVCKWPGCEKVFEEPEDFLKHCQADHLLDEKGRAQCLLQREMVQSLEQQLVLEKEKLSAMQAHLAGKMALTKASSVASSDKGSCCIVAAGSQGPVVPAWSGPREAPDSLFAVRRHLWGSHGNSTFPEFLHNMDYFKFHNMRPPFTYATLIRWAILEAPEKQRTLNEIYHWFTRMFAFFRNHPATWKNAIRHNLSLHKCFVRVESEKGAVWTVDELEFRKKRSQRPSRCSNPTPGP
B4: Keratin, type II cytoskeletal 6A (Homo sapiens), P02538 (parent)
chain: MASTSTTIRSHSSSRRGFSANSARLPGVSRSGFSSVSVSRSRGSGGLGGACGGAGFGSRSLYGLGGSKRISIGGGSCAISGGYGSRAGGSYGFGGAGSGFGFGGGAGIGFGLGGGAGLAGGFGGPGFPVCPPGGIQEVTVNQSLLTPLNLQIDPTIQRVRAEEREQIKTLNNKFASFIDKVRFLEQQNKVLETKWTLLQEQGTKTVRQNLEPLFEQYINNLRRQLDSIVGERGRLDSELRGMQDLVEDFKNKYEDEINKRTAAENEFVTLKKDVDAAYMNKVELQAKADTLTDEINFLRALYDAELSQMQTHISDTSVVLSMDNNRNLDLDSIIAEVKAQYEEIAQRSRAEAESWYQTKYEELQVTAGRHGDDLRNTKQEIAEINRMIQRLRSEIDHVKKQCANLQAAIADAEQRGEMALKDAKNKLEGLEDALQKAKQDLARLLKEYQELMNVKLALDVEIATYRKLLEGEECRLNGEGVGQVNISVVQSTVSSGYGGASGVGSGLGLGGGSSYSYGSGLGVGGGFSSSSGRAIGGGLSSVGGGSSTIKYTTTSSSSRKSYKH
partner: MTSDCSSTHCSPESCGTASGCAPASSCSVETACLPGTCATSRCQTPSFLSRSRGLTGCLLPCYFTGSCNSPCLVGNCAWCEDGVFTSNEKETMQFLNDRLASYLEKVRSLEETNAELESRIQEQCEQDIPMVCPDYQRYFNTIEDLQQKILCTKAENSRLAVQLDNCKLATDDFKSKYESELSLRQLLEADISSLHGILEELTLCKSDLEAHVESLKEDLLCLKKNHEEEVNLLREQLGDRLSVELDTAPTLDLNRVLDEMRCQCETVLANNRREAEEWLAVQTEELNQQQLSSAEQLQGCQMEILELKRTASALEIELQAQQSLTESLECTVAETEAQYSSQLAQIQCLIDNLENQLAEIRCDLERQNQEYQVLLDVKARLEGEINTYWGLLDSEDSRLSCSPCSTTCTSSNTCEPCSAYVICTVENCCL
B5: Keratin, type II cytoskeletal 6A (Homo sapiens), P02538 (parent)
chain: B4 chain
partner: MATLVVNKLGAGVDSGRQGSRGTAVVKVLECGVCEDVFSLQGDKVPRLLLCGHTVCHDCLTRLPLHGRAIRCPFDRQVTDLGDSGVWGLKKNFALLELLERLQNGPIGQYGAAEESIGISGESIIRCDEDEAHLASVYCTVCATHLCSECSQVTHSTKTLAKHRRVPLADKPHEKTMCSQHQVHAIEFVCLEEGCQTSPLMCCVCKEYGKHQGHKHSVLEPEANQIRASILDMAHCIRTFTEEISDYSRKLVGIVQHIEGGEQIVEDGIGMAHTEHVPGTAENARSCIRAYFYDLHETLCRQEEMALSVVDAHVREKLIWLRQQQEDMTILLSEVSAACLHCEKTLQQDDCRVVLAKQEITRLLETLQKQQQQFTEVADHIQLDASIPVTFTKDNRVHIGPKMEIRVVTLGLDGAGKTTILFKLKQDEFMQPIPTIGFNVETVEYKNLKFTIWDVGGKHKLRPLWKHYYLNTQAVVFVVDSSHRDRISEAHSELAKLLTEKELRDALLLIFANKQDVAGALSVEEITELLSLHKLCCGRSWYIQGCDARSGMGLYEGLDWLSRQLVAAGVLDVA
B6: Inactive peptidyl-prolyl cis-trans isomerase FKBP6 (Homo sapiens), O75344 (parent)
chain: B1 chain
partner: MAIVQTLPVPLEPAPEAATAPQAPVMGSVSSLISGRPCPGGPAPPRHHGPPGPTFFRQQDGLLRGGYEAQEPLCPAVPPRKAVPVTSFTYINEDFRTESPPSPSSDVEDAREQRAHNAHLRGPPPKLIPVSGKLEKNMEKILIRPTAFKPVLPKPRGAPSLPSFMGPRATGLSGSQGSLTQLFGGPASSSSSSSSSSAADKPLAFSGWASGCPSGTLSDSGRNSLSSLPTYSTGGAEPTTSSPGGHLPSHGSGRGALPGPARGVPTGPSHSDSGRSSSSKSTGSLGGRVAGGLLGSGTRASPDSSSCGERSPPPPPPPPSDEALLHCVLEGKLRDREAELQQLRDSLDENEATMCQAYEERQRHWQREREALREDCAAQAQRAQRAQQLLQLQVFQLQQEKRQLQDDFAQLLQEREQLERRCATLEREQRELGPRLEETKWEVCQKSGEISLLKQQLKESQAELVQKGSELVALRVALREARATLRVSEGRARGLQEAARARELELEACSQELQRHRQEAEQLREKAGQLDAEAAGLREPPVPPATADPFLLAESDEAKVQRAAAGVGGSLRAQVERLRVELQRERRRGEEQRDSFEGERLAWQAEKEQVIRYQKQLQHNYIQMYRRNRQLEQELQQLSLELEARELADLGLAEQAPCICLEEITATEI
B7: Lipopolysaccharide-induced tumor necrosis factor-alpha factor (Homo sapiens), Q99732 (parent)
chain: MSVPGPYQAATGPSSAPSAPPSYEETVAVNSYYPTPPAPMPGPTTGLVTGPDGKGMNPPSYYTQPAPIPNNNPITVQTVYVQHPITFLDRPIQMCCPSCNKMIVSQLSYNAGALTWLSCGSLCLLGCIAGCCFIPFCVDALQDVDHYCPNCRALLGTYKRL
partner: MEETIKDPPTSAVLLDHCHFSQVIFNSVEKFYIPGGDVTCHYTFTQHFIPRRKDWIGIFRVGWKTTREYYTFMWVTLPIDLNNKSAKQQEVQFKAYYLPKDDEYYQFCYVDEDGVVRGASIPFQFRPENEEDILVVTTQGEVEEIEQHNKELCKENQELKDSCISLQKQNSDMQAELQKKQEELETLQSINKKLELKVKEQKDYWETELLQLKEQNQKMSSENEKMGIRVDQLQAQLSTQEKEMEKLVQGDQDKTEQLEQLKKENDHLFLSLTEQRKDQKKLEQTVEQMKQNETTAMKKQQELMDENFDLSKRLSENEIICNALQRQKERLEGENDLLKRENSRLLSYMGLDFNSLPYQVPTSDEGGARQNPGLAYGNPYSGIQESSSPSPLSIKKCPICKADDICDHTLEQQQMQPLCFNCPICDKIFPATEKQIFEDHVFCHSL
B8: EF-hand domain-containing protein 1 (Homo sapiens), Q5JVL4 (parent)
chain: MVSNPVHGLPFLPGTSFKDSTKTAFHRSQTLSYRNGYAIVRRPTVGIGGDRLQFNQLSQAELDELASKAPVLTYGQPKQAPPADFIPAHVAFDKKVLKFDAYFQEDVPMSTEEQYRIRQVNIYYYLEDDSMSVIEPVVENSGILQGKLIKRQRLAKNDRGDHYHWKDLNRGINITIYGKTFRVVDCDQFTQVFLESQGIELNPPEKMALDPYTELRKQPLRKYVTPSDFDQLKQFLTFDKQVLRFYAIWDDTDSMYGECRTYIIHYYLMDDTVEIREVHERNDGRDPFPLLMNRQRVPKVLVENAKNFPQCVLEISDQEVLEWYTAKDFIVGKSLTILGRTFFIYDCDPFTRRYYKEKFGITDLPRIDVSKREPPPVKQELPPYNGFGLVEDSAQNCFALIPKAPKKDVIKMLVNDNKVLRYLAVLESPIPEDKDRRFVFSYFLATDMISIFEPPVRNSGIIGGKYLGRTKVVKPYSTVDNPVYYGPSDFFIGAVIEVFGHRFIILDTDEYVLKYMESNAAQYSPEALASIQNHVRKREAPAPEAESKQTEKDPGVQELEALIDTIQKQLKDHSCKDNIREAFQIYDKEASGYVDRDMFFKICESLNVPVDDSLVKELIRMCSHGEGKINYYNFVRAFSN

Variants of B1 are the subject of the first assay. The note with it: with sumo5_human SUMO1P1, G2XKQ0.
F72L: the “effect of a mutation on the interaction” value is on record as “disrupting interaction”.

Variants of B2 are the subject of the next assay. Conditions: with xrcc4_human XRCC4, Q13426.
xrcc4_human XRCC4, Q13426, sequence (Q13426 whole entry): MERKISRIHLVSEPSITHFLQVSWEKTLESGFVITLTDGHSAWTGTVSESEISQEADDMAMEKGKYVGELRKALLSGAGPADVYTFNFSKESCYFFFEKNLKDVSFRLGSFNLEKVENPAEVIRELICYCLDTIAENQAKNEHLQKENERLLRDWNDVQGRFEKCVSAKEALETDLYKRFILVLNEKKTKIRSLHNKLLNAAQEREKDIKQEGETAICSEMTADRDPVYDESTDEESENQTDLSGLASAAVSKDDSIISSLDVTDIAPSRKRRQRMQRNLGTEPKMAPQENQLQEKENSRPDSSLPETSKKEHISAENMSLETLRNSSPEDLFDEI
For the variant A3V, the “effect of a mutation on the interaction” value is listed as “disrupting interaction”.

The variants in the next assay derive from B3. Conditions: with pr20c_human PRR20C.
Q70H: the “effect of a mutation on the interaction” value is “disrupting interaction”.

The variants in the next assay derive from B3. The note with it: with rbpms_human RBPMS.
Turning to Q70H, the “effect of a mutation on the interaction” value is listed as “disrupting interaction”.

The next assay covers variants of B3. Conditions: with pr20c_human PRR20C. This is another data set of the same source.
In the case of I363V, the “effect of a mutation on the interaction” value is on record as “disrupting interaction”.

In the next assay the parent is B3. Conditions: with rbpms_human RBPMS. The source holds these as a separate data set.
Regarding I363V, the “effect of a mutation on the interaction” value was “disrupting interaction”.

In the next assay the parent is B4. Conditions: with KRT40, Q6A162.
For I462S, the “effect of a mutation on the interaction” value is “disrupting interaction”.

In another assay the parent is B4. The note with it: with KRT40, Q6A162. The source holds these as a separate data set.
Consider A463P, for which the “effect of a mutation on the interaction” value is reported as “disrupting interaction”.

Variants of B5 are the subject of another assay. The note with it: with tri23_human TRIM23, P36406.
On to I462S, for which the “effect of a mutation on the interaction” value is reported as “disrupting interaction”.

In the next assay the parent is B5. Conditions: with tri23_human TRIM23, P36406. This is another data set of the same source.
For N171K, the “effect of a mutation on the interaction” value is reported as “disrupting interaction”.

The next assay covers variants of B5. Conditions: with tri23_human TRIM23, P36406. This is another data set of the same source.
Take A463P: the “effect of a mutation on the interaction” value was “disrupting interaction”.

In another assay the parent is B6. Conditions: with lzts2_human LZTS2, Q9BRK4.
With F72L, the “effect of a mutation on the interaction” value is listed as “disrupting interaction”.

A further assay covers variants of B7. The note with it: with caco2_human CALCOCO2, Q13137.
Take G112S: the “effect of a mutation on the interaction” value was “disrupting interaction”.

In the next assay the parent is B7. The note with it: with caco2_human CALCOCO2, Q13137. This is another data set of the same source.
In the case of A111G, the “effect of a mutation on the interaction” value is “disrupting interaction”.

The next assay covers variants of B8. The note with it: with itf2_human TCF4, P15884.
itf2_human TCF4, P15884, sequence (P15884 whole entry): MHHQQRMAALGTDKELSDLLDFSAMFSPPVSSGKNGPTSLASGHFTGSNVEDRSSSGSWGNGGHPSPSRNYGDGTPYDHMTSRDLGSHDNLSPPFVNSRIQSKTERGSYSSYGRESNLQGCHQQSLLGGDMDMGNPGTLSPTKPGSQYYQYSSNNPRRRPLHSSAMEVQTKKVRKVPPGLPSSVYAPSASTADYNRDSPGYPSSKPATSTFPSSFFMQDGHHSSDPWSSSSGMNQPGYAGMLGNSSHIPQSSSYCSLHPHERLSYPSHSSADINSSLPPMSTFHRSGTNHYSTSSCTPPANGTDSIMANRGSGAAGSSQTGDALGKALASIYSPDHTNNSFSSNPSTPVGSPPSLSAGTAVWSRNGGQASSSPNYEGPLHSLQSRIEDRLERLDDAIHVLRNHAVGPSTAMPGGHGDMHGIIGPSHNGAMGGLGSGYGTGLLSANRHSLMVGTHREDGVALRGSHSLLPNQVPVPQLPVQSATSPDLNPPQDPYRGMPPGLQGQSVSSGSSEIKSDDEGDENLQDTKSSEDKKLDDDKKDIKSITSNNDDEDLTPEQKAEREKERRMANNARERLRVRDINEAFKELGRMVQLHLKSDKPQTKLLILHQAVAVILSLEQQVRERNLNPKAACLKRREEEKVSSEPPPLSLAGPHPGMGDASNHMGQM
For P77T, the “effect of a mutation on the interaction” value is “disrupting interaction”.

Another assay covers variants of B8. Conditions: with ikzf3_human IKZF3, Q9UKT9.
ikzf3_human IKZF3, Q9UKT9, sequence (Q9UKT9 whole entry): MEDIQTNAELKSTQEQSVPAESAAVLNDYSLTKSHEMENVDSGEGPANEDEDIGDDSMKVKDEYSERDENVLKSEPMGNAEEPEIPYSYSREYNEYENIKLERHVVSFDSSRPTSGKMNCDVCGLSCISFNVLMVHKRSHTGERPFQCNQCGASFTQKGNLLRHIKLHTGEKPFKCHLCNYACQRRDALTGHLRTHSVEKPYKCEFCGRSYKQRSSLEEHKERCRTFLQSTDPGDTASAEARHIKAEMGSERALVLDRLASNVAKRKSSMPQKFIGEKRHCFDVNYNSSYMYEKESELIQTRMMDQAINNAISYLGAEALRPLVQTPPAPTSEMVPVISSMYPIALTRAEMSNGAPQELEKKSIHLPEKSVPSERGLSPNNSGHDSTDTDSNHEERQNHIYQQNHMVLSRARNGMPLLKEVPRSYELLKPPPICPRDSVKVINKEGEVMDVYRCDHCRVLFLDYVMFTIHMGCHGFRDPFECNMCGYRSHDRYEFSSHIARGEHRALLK
P77T: the “effect of a mutation on the interaction” value was “disrupting interaction”.

In another assay the parent is B8. Conditions: with itf2_human TCF4, P15884. This is another data set of the same source.
Regarding R221H, the “effect of a mutation on the interaction” value is reported as “disrupting interaction”.

Variants of B8 are the subject of another assay. The note with it: with ikzf3_human IKZF3, Q9UKT9. The source holds these as a separate data set.
As to R221H, the “effect of a mutation on the interaction” value is reported as “disrupting interaction”.
